Assay [1] deals with chimeric transactivator λR-GyrB-NFκB (wild type λ repressor N-terminal domain) (bacteriophage λ; Escherichia coli). Nature of the assay: cell-based or functional assay.
The target of assay [2] is chimeric transactivator λR-GyrB-NFκB with λ repressor mutation S93G (mutant clone 25) (bacteriophage λ; Escherichia coli). Nature of the assay: cell-based or functional assay.

The values that follow come from patent US7838501.

Bounds are passed on as bounds.

In turn, “chimeric transactivator λR-GyrB-NFκB (wild type λ repressor N-terminal domain)” registered an inducibility of luciferase activity, 5 nM coumermycin 40 hr, transient transfection of 293A cells in assay [1] of 50 fold.
“chimeric transactivator λR-GyrB-NFκB with λ repressor mutation S93G (mutant clone 25)”: in assay [2], the Activation factor, clone 5 was 5100 fold; the Activation factor, clone 8 worked out at 1500 fold; the Activation factor, clone 10 was found to be 3200 fold; the Activation factor, clone 18 was 5800 fold. In assay [2], this substance showed an Activation factor, clone 23 of 14000 fold; an Activation factor, clone 28 of 5100 fold; an Activation factor, clone 34 of 5800 fold; an Activation factor, clone 44 of 13000 fold. Besides, in assay [2], the Activation factor, clone 45 stood at 1600 fold; the Activation factor, clone 47 worked out at 2100 fold; the Luciferase Activity, With Coum (5 nM), clone 5 (Arbitrary Light Units/µg protein) came out at 47500; the Luciferase Activity, With Coum (5 nM), clone 8 (Arbitrary Light Units/µg protein) came out at 52400. In assay [2], this substance showed a Luciferase Activity, With Coum (5 nM), clone 10 (Arbitrary Light Units/µg protein) of 1590; a Luciferase Activity, With Coum (5 nM), clone 18 (Arbitrary Light Units/µg protein) of 7450; a Luciferase Activity, With Coum (5 nM), clone 23 (Arbitrary Light Units/µg protein) of 8240; a Luciferase Activity, With Coum (5 nM), clone 28 (Arbitrary Light Units/µg protein) of 12300. In assay [2], this substance registered a Luciferase Activity, With Coum (5 nM), clone 34 (Arbitrary Light Units/µg protein) of 47000; a Luciferase Activity, With Coum (5 nM), clone 44 (Arbitrary Light Units/µg protein) of 30200; a Luciferase Activity, With Coum (5 nM), clone 45 (Arbitrary Light Units/µg protein) of 1910; a Luciferase Activity, With Coum (5 nM), clone 47 (Arbitrary Light Units/µg protein) of 8530. In assay [2], this substance yielded a Luciferase Activity, Without Coum, clone 5 (Arbitrary Light Units/µg protein) of 9.4; a Luciferase Activity, Without Coum, clone 8 (Arbitrary Light Units/µg protein) of 35.8; a Luciferase Activity, Without Coum, clone 10 (Arbitrary Light Units/µg protein) of 0.5; a Luciferase Activity, Without Coum, clone 18 (Arbitrary Light Units/µg protein) of 1.3. Besides, in assay [2], the Luciferase Activity, Without Coum, clone 23 (Arbitrary Light Units/µg protein) was 0.6; the Luciferase Activity, Without Coum, clone 28 (Arbitrary Light Units/µg protein) came to 2.4; the Luciferase Activity, Without Coum, clone 34 (Arbitrary Light Units/µg protein) amounted to 8.1; the Luciferase Activity, Without Coum, clone 44 (Arbitrary Light Units/µg protein) turned out to be 2.4. In assay [2], this substance displayed a Luciferase Activity, Without Coum, clone 45 (Arbitrary Light Units/µg protein) of 1.2; a Luciferase Activity, Without Coum, clone 47 (Arbitrary Light Units/µg protein) of 4.1; a coumermycin concentration of maximal induction of luciferase, stable clone S93G-5, 40 hr of 2.5 to 5 nM; an induction of luciferase activity, 5 nM coumermycin 40 hr, 293A cells with stable pLuc of 1460 fold. Further, in assay [2], the lowest coumermycin concentration with apparent induction of luciferase expression, stable clone S93G-5, 40 hr amounted to 0.5 nM and the suppression of coumermycin-induced (5 nM) luciferase expression by 5 µM novobiocin, 40 hr was more than 98%.
